Measured values taken from paper PMC8544208 (Antibodies, 2021).

Molecular target: T1, C5b6 with bound C7 and C8, assembled on the SPR chip (human | , UniProt P01031 19-673; P01031 752-1676; P13671 22-934; P10643 23-843; P07357 31-584; …)
T1 construct: complement C5 beta chain, as part of C5b; complement C5 alpha' chain of C5b; complement component C6; complement component C7; complement component C8 alpha chain; complement component C8 beta chain; complement component C8 gamma chain; Formed by injecting C7 (4 nM) and then C8 (8 nM) over C5b6 captured on the anti-C5 tool antibody; source: assembled on the SPR chip from bought C5b6, C7 and C8 …
Test: SPR; MAC assembly assay, Biacore 8K, HBS-EP+; anti-C5 antibody amine coupled to a CM5 chip, C5 or C5b6 captured at 4 nM; C7, C8 and C9 flowed over in succession at 4, 8 and 50 nM, also with single components left out
Details: both partners purified

B1: Complement C9 (natural protein)
chain: not shown
notes: complement component C9; Unlabelled C9 as used in SPR; source: bought: Complement Technology (Comptech)
B1: binds.
